Results on one substance are retold here after patent publication US6720153B1, “Luciferase reporter bioassay of parathyroid hormone compounds” (Aventis Pharmaceuticals Inc., priority 1998, dated 2004).

In this assay the target is T1, PTH receptor (Homo sapiens, UniProt Q03431).
T1 construct: expressed in transfected cells; host or cells: HEK-293
T1 sequence (Q03431 27-593): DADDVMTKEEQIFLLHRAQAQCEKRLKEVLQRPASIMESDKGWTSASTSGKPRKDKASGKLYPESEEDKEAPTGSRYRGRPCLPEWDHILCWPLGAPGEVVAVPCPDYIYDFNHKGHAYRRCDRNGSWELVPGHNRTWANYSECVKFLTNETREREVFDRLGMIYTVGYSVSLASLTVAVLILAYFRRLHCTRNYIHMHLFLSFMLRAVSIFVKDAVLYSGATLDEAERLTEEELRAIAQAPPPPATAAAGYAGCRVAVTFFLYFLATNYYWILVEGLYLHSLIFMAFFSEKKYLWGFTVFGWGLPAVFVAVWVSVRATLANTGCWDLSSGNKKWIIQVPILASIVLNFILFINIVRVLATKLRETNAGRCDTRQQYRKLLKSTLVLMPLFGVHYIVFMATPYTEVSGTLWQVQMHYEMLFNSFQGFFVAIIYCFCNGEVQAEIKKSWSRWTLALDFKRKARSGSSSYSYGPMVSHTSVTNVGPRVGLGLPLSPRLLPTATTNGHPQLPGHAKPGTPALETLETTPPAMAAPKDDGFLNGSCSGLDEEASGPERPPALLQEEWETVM
The assay can be described thus: Luciferase reporter assay in hPTH receptor-expressing HEK-293 cells. Type of assay: cell-based. Particulars: clones of PTH receptor expressing HEK-293 cells bearing pMCL3zeo luciferase reporter gene; clones selected for assay development. The source says:
This cell line is obtained as described by Pines et al., Endocrinology, 1994, 135(4), 1713-1716, incorporated herein by reference.
The firefly luciferase reporter gene bearing the cAMP responsive elements is amplified by PCR from the pDMC16LUC vector using the method of Spengler et al., Nature, 1993, 365: 170-175, incorporated herein by reference. The PCR product containing the MMTV promoter, sixteen cAMP responsive elements and the luciferase gene is inserted into the zeocin resistant vector (pUTSV1 from InVitrogen). The final vector, termed pMCL3zeo, is then introduced into PTH receptor expressing HEK-293 cells using the lipofectamine method (reagents and method obtained from Gibco/BRL). Cells incorporating the luciferase reporter gene are selected by including zeocin in the culture medium. By limited dilution, different cell clones are isolated and expanded. These clones are tested for their responsiveness to PTH in terms of luciferase expression.
hPTH receptor-expressing HEK-293 cells bearing the luciferase reporter gene are cultured to 80-90% confluency. […] The luciferase activity in the lysates is measured by the addition of the luciferin substrate (Promega assay kit) to effect light production. The output of light is measured in a Wallac Trilux microbeta plate reader.
(In general: A reporter such as luciferase makes a cellular process visible.)

parathyroid hormone [PTH]: the luciferase induction is 5-6 fold.
